Source: article PMC3561992

Biological target: T1, AtCyp59 full-length (Arabidopsis thaliana, UniProt Q6Q151 1-506)
T1 sequence: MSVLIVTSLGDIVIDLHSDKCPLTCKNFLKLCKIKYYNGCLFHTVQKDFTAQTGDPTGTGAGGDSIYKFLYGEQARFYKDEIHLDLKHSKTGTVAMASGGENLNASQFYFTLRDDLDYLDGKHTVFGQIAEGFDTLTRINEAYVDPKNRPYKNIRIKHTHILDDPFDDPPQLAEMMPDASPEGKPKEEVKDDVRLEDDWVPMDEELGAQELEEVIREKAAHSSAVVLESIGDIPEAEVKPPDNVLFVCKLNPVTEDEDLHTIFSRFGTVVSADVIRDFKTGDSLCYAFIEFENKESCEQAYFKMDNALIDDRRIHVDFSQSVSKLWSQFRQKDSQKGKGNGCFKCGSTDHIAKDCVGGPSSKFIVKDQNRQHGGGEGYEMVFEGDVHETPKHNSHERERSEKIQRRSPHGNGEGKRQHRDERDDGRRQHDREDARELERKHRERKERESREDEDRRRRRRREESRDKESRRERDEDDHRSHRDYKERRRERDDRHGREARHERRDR
Experiment: EMSA

Kd, 120 ± 25 nM:
GUGGCCA (ssRNA)
GGUGCCG (ssRNA)
GCGGCCA (ssRNA)
GCGGCCG (ssRNA)
GACGCCA (ssRNA)
GUAGCCA (ssRNA)
GGAGCCA (ssRNA)
GCCGCCA (ssRNA)
GUUGCCG (ssRNA)
GUCGCCG (ssRNA)
GAUGCCG (ssRNA)
GCUGCCG (ssRNA)
GCCGCCG (ssRNA)
GUGGCCG (ssRNA)
GUCGCCA (ssRNA)
GUAGCCG (ssRNA)
GAUGCCA (ssRNA)
